Assay results: patent US6462178B1, “G protein” (Yong Hou Wong, priority 1999, dated 2002)
Blank lines part the entries; values can stand above or below the molecule they belong to.

Experiments:
δ-opioid receptor [1] = target: T1, δ-opioid receptor (Homo sapiens, UniProt P41143); test: IP accumulation, δ-opioid receptor coexpressed with Gα subunit in COS-7; format: cell-based; details: for IP Formation Agonist / IP Formation % Res.: 100 nM DPDPE; for IP Formation % Res.: relative to basal; for stimulation of IP formation: 100 nM
T1 construct: expressed in transfected cells; host or cells: COS-7
T1 sequence (P41143 whole entry): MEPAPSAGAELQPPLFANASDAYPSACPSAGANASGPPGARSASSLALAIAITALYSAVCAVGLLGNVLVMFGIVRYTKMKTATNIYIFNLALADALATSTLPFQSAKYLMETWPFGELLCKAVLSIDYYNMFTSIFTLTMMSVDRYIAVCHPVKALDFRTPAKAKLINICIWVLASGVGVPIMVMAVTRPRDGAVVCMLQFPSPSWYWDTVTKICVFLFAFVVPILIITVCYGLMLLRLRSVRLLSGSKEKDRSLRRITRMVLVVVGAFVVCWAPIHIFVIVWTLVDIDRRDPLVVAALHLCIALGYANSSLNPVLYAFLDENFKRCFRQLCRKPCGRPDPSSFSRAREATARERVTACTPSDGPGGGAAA

δ-opioid receptor [2] = target: δ-opioid receptor
δ-opioid receptor [3] = target: δ-opioid receptor; remark: listed apart in the source
[4] = target: formyl peptide (fMLP) receptor
complement C5a receptor [5] = target: complement C5a receptor
melatonin Mel1b receptor = target: T2, melatonin Mel1b receptor
T2 sequence (P49286 whole entry, species assumed, looked up): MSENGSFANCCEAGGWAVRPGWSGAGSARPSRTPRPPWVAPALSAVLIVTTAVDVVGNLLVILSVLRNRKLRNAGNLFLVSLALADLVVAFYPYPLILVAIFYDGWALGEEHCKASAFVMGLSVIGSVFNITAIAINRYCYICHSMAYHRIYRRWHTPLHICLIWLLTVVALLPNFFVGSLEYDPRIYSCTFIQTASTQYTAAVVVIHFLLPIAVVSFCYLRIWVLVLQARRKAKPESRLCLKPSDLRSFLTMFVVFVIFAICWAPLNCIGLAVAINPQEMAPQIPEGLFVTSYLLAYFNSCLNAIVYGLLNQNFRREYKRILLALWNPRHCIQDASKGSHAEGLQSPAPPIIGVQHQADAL

complement C5a receptor [6] = target: T3, complement C5a receptor (Homo sapiens, UniProt P21730); test: IP accumulation, complement C5a receptor coexpressed with Gα subunit in COS-7; format: cell-based; details: 100 nM C5a; for IP Formation % Res.: relative to basal
T3 construct: expressed in transfected cells; host or cells: COS-7
T3 sequence (P21730 1-350): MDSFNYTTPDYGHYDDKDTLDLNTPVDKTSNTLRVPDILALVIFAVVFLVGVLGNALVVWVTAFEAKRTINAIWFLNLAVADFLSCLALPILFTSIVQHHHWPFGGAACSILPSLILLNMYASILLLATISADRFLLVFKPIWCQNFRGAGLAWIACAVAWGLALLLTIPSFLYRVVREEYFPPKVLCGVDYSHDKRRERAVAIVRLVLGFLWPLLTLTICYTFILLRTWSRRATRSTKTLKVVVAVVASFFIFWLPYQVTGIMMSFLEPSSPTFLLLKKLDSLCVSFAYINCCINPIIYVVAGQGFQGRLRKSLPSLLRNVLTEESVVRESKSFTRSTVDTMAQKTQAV

[7] = COS-7, receptor + 16z25 chimera
[8] = COS-7, receptor + 16z44 chimera

dopamine D2 receptor, sequence (P14416 whole entry): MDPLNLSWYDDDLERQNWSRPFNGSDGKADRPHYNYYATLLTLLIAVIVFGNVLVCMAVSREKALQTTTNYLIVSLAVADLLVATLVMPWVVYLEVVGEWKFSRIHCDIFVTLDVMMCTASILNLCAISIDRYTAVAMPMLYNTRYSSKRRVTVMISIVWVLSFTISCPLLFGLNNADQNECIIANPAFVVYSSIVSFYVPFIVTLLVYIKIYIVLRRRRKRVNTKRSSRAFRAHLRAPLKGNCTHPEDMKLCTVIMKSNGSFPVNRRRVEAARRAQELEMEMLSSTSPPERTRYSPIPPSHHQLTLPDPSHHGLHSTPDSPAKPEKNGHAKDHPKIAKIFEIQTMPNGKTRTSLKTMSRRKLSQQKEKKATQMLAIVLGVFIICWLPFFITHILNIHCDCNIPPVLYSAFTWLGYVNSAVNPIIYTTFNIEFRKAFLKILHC

- IP formation with agonist (cells coexpressing 16z44) (IP formation (unit not given)) (δ-opioid receptor [2]): 122
- EC50 for IP formation (cells coexpressing 16z44) (δ-opioid receptor [3]): 10 nM
- EC50 for IP formation (cells coexpressing Gα16) (δ-opioid receptor [3]): 40 nM
Molecule: [D-Pen^2,D-Pen^5]enkephalin (peptide)

- IP formation with agonist (cells coexpressing 16z44) (IP formation (unit not given)) [4]: 91.6
Molecule: N-formylmethionyl-leucyl-phenylalanine (peptide)

- IP formation (PLC stimulation), % Res. (complement C5a receptor [5]): 608 % Res.
- IP formation (PLC stimulation), % Res. [4]: 566 % Res.
- IP formation (PLC stimulation), % Res. (melatonin Mel1a receptor): 296 % Res.
- IP formation (PLC stimulation), % Res. (melatonin Mel1b receptor): 195 % Res.
- IP formation (PLC stimulation), % Res. (melatonin Mel1c receptor): 115 % Res.
- IP formation (PLC stimulation), % Res. (vasopressin V2 receptor): 332 % Res.
- IP formation (PLC stimulation), % Res. (µ-opioid receptor): 134 % Res.
- IP formation (PLC stimulation), % Res. (α2-adrenergic receptor): 730 % Res.
- IP formation (PLC stimulation), % Res. (δ-opioid receptor [2]): 417 % Res.
- IP formation (PLC stimulation), % Res. (κ-opioid receptor): 327 % Res.
B2: Gα16 (protein)
chain: MARSLTWRCCPWCLTEDEKAAARVDQEINRILLEQKKQDRGELKLLLLGPGESGKSTFIKQMRIIHGAGYSEEERKGFRPLVYQNIFVSMRAMIEAMERLQIPFSRPESKHHASLVMSQDPYKVTTFEKRYAAAMQWLWRDAGIRACYERRREFHLLDSAVYYLSHLERITEEGYVPTAQDVLRSRMPTTGINEYCFSVQKTNLRIVDVGGQKSERKKWIHCFENVIALIYLASLSEYDQCLEENNQENRMKESLALFGTILELPWFKSTSVILFLNKTDILEEKIPTSHLATYFPSFQGPKQDAEAAKRFILDMYTRMYTGCVDGPEGSKKGARSRRLFSHYTCATDTQNIRKVFKDVRDSVLARYLDEINLL

More lines, now with the values behind:

Molecule: [D-Ala^2,N-Me-Phe^4,Gly^5-ol]enkephalin (peptide)
- IP formation with agonist (cells coexpressing 16z44) (IP formation (unit not given)) (µ-opioid receptor): 68.5

Molecule: [D-Pen^2,D-Pen^5]enkephalin [DPDPE]
- IP Formation Agonist (δ-opioid receptor [1]; [7]): 66.8 ± 7.1
- IP Formation % Res. (δ-opioid receptor [1]; [7]): 287%
- IP Formation Agonist (δ-opioid receptor [1]; [8]): 121.8 ± 9.1
- IP Formation % Res. (δ-opioid receptor [1]; [8]): 548%
- IP Formation Agonist (δ-opioid receptor [1]; COS-7, receptor + Gα16): 42.2 ± 6.1
- IP Formation % Res. (δ-opioid receptor [1]; COS-7, receptor + Gα16): 417%
- maximal stimulation, 16z44-mediated relative to Gα16-mediated response (δ-opioid receptor [1]; COS-7, δ-opioid receptor): twice that of the Gα16-mediated response
- DPDPE response (IP formation) (δ-opioid receptor [1]; COS-7, δ-opioid receptor + 16z3, 16z6 or 16z66): failed to mediate the DPDPE response
- IP formation (δ-opioid receptor [1]; COS-7, δ-opioid receptor + 30z16): doubled the IP formation
- response to agonist-activated δ-opioid receptor (IP formation) (δ-opioid receptor [1]; COS-7, δ-opioid receptor + 30z16z66): unable to respond
- stimulation of IP formation (δ-opioid receptor [1]; COS-7 coexpressing Gα16 and δ-opioid receptor): 3 fold
- stimulation of IP formation (δ-opioid receptor [1]; COS-7 coexpressing δ-opioid receptor with either 16z25 or 16z44): 3-4.5 folds
- formation of IP (δ-opioid receptor [1]; COS-7 cotransfected with δ-opioid receptor and Gαz, agonist treatment): failed to evoke formation of IP

B1: 16z25 chimera (protein)
chain: MARSLTWRCCPWCLTEDEKAAARVDQEINRILLEQKKQDRGELKLLLLGPGESGKSTFIKQMRIIHGAGYSEEERKGFRPLVYQNIFVSMRAMIEAMERLQIPFSRPESKHHASLVMSQDPYKVTTFEKRYAAAMQWLWRDAGIRACYERRREFHLLDSAVYYLSHLERITEEGYVPTAQDVLRSRMPTTGINEYCFSVQKTNLRIVDVGGQKSERKKWIHCFENVIALIYLASLSEYDQCLEENNQENRMKESLALFGTILELPWFKSTSVILFLNKTDILEEKIPTSHLATYFPSFQGPKQDAEAAKRFILDMYTRMYTGCVDGPEGSKKGARSRRLFSHYTCATDTSNIQFVFDAVTDVIIQNNLKYIGLC
- IP formation (PLC stimulation), % Res. (adenosine A1 receptor): 197 % Res.
- IP formation (PLC stimulation), % Res. (complement C5a receptor [5]): 432 % Res.
- IP formation (PLC stimulation), % Res. (dopamine D1 receptor): 214 % Res.
- IP formation (PLC stimulation), % Res. (dopamine D2 receptor): 324 % Res.
- IP formation (PLC stimulation), % Res. [4]: 352 % Res.
- IP formation (PLC stimulation), % Res. (melatonin Mel1a receptor): 150 % Res.
- IP formation (PLC stimulation), % Res. (melatonin Mel1b receptor): 155 % Res.
- IP formation (PLC stimulation), % Res. (melatonin Mel1c receptor): 270 % Res.
- IP formation (PLC stimulation), % Res. (vasopressin V2 receptor): 291 % Res.
- IP formation (PLC stimulation), % Res. (µ-opioid receptor): 224 % Res.
- IP formation (PLC stimulation), % Res. (α2-adrenergic receptor): 365 % Res.
- IP formation (PLC stimulation), % Res. (β2-adrenergic receptor): 360 % Res.
- IP formation (PLC stimulation), % Res. (δ-opioid receptor [2]): 287 % Res.
- IP formation (PLC stimulation), % Res. (κ-opioid receptor): 188 % Res.

B3: C5a: complement C5a, agonist of the C5a receptor (protein, UniProt P01031 678-751, looked up)
C5a anaphylatoxin: TLQKKIEEIAAKYKHSVVKKCCYDGACVNNDETCEQRAARISLGPRCIKAFTECCVVASQLRANISHKDMQLGR
modifications: C5a anaphylatoxin
notes: complement C5a, agonist of the C5a receptor
- IP Formation Agonist (complement C5a receptor [6]; [7]): 79.6 ± 6.5
- IP Formation % Res. (complement C5a receptor [6]; [7]): 432%
- IP Formation Agonist (complement C5a receptor [6]; [8]): 87.4 ± 7.2
- IP Formation % Res. (complement C5a receptor [6]; [8]): 457%
- IP Formation Agonist (complement C5a receptor [6]; COS-7, receptor + Gα16): 67.5 ± 8.1
- IP Formation % Res. (complement C5a receptor [6]; COS-7, receptor + Gα16): 608%
